{"source": "patent US20030162734", "key": {"[1]": {"biological_target": "DENN-JBD (JNK binding domain region of DENN lacking the NLS and DD regions, fused to the C-terminus of EGFP) (UniProt Q8WXG6)"}, "[2]": {"biological_target": "GFP-DENN (full length DENN/MADD fused to the C-terminus of EGFP) (UniProt Q8WXG6)"}}, "data": [{"substance": "JNK (c-Jun N-terminal kinase), endogenous in NSC19 cells; p54 and p46 isoforms of phosphorylated JNK", "values": [{"measurement": "p54 band of phosphorylated JNK on Western immunoblot, NSC19 clones, 24 h Aβ exposure", "setting": "[1]", "value": "DENN and DENN-JBD affected 3 to 4-fold increase in the p54 band with Aβ exposure"}, {"measurement": "phosphorylated c-Jun (Ser73) on immunoblot, NSC19 clones", "setting": "[1]", "value": "Expression of ΔMEKK1, DENN, DENN-CT and DENN-JBD showed sustained levels of phosphorylated c-Jun"}, {"measurement": "p54 band of phosphorylated JNK on Western immunoblot, NSC19 clones, 24 h Aβ exposure", "setting": "[2]", "value": "DENN and DENN-JBD affected 3 to 4-fold increase in the p54 band with Aβ exposure"}]}]}
